Laboratory results taken from the RNAGym collection of RNA variant scans (doi:10.7554/elife.90254).

B1: LINE1-full (parent)
chain: UACGUAGGUGGUUUUCCCCUGAUAGUGCUAAGGGGGCCUGGAAGUUUGGACUGGGCAGAGCUCAACACAGCGUGGCAAAGUGGCUGUGGCUAGACUGCCUCUCUGGAUUCCUCGUCACUCAGCAGGGCAUCUCUGAGAGAAAUGCC

Variants of: B1
Assay: self-cleavage, relative activity (ratio to wild type); higher = more cleavage; in vitro, sequencing; the parent is a self-cleaving ribozyme

Row | Variant | self-cleavage
1 | U9C U85G | 0.27
2 | U9G U132A | 0.59
3 | U9C A22U | 0.89
4 | U9A G36U | 0.71
5 | G11A C63A | 0.01
6 | U12A A138G | 1.37
7 | U9C A78G | 1.19
8 | G10C C146U | 1.91
9 | U9A U39C | 0.25
10 | U9A U39A | 1.16
11 | G8U A124U | 1.47
12 | U9A C128U | 0.9
13 | U9C A124U | 1.26
14 | G8C U46C | 1.13
15 | U9C A64G | 0.45
16 | G10U | 1.26
17 | G10C | 0.79
18 | G10A | 1.11
19 | U12A A94G | 0.55
20 | U9A A136G | 1.29
21 | G10A C95A | 0.03
22 | U9C A138G | 1.21
23 | U12A A50C | 0.57
24 | U12A A50G | 1.45

Row | Variant | self-cleavage
25 | U9G C56U | 0.24
26 | G11A A77U | 1.58
27 | U9A U12C | 0.86
28 | U9A U12G | 0.67
29 | U9G G60A | 0.09
30 | U9G A94G | 0.22
31 | U9A U62A | 0.12
32 | U9C G27A | 1.16
33 | U9C A117G | 1.53
34 | U9C A117U | 1.62
35 | G10A A136U | 0.95
36 | U9C C66U | 0.08
37 | U9C G34C | 0.8
38 | U9C G34A | 1.05
39 | G11A U46C | 0.94
40 | U9C U39A | 1.17
41 | U9C U39C | 1.14
42 | U9A C145U | 1.64
43 | U9A A140G | 1.11
44 | U9A A140C | 1.06
45 | G10A U26C | 0.95
46 | U9C U46A | 1.18
47 | U9C U46C | 1.08
48 | U9A A94G | 0.27

Row | Variant | self-cleavage
49 | U9A C90U | 0
50 | U9A C90A | 0.04
51 | U9C G125A | 1.8
52 | U9A C18A | 1.09
53 | U9A C18G | 1.1
54 | G8U U130C | 1.66
55 | G11U U130C | 1
56 | U9A G89A | 0.1
57 | U9C G36U | 2.08
58 | U9G C116G | 1.18
59 | G11U A79U | 1.75
60 | U9A U134C | 1.4
61 | U9A G55C | 0.09
62 | U9C A59U | 0.72
63 | G11A A141U | 1.05
64 | U9C A50C | 1.25
65 | U9A A31G | 1.35
66 | U9A G126A | 0.82
67 | U9C U87C | 0.42
68 | U9C U87G | 0.69
69 | U9C U87A | 0.2
70 | G11A A121U | 0.95
71 | G8U U13C | 2.33
72 | U9C U20A | 0.95

Row | Variant | self-cleavage
73 | U9G G44A | 1.53
74 | U9C C146U | 1.1
75 | U9C U29A | 1.1
76 | U9A U102C | 1.03
77 | U9G A67G | 0.37
78 | U9C G21A | 1.32
79 | U12A A30G | 0.94
80 | G8U A59U | 0.63
81 | G10A U62C | 0.06
82 | G10C U73C | 1.64
83 | U9C C16A | 0.59
84 | U9A U73G | 1.29
85 | U9C U143C | 1.31
86 | G11A A64U | 0.3
87 | U12A C113U | 1.36
88 | U9C C103U | 1.4
89 | U9A U46C | 0.98
90 | U9C U14A | 1.17
91 | U9C U14G | 2.09
92 | U9A G74A | 1.09
93 | U9G U73C | 1.24
94 | G10A A77G | 1.31
95 | U9C U23C | 1.68
96 | G10A U104C | 0.37

Row | Variant | self-cleavage
97 | G10A A124U | 2.3
98 | U9C G89U | 0.08
99 | U9C G89C | 0.05
100 | U12A A65C | 0.14
101 | U12A A65G | 0.21
102 | U9C A136U | 1.3
103 | U9C A136G | 1.75
104 | U9A G32A | 1.73
105 | G10A C99A | 0.42
106 | U9G A79G | 0.63
107 | G10A U52C | 0.62
108 | U9C U112A | 1.46
109 | U9C U112C | 1.45
110 | U12A A79G | 1.13
111 | U9C U115A | 1.55
112 | U9C U115C | 1.29
113 | U9A U13C | 0.81
114 | U9A U13A | 1.12
115 | U9C U62A | 0.14
116 | U9A G27A | 0.81
117 | U9A U112A | 0.82
118 | U9A U112C | 1.32
119 | U12A A59U | 0.56
120 | U9C G97A | 0.33

Row | Variant | self-cleavage
121 | U9A U20A | 1.41
122 | G11A U29A | 1.34
123 | U9C A57G | 0.96
124 | G11U U134G | 1.07
125 | G10U C145A | 1
126 | G11C U20C | 1.53
127 | U9C G93A | 0.05
128 | U9A A42C | 0.56
129 | U9A A42G | 1.14
130 | U9A A42U | 1.09
131 | U9C A42G | 1.32
132 | G11A A79G | 0.56
133 | G10A U47C | 1.37
134 | U9A U81C | 1.1
135 | U9C U134G | 0.63
136 | U9C U134A | 1.19
137 | U9A G114C | 0.61
138 | U9C U81G | 1.31
139 | U9A G70C | 0.3
140 | U9A C61U | 0.02
141 | G10U A59U | 0.72
142 | U9A C37U | 0.63
143 | U9A U115C | 1.55
144 | U9A U52A | 0.9

Row | Variant | self-cleavage
145 | U9A U52C | 0.74
146 | U12A A69G | 0.42
147 | U9A A142G | 1.13
148 | U9A A57G | 0.98
149 | U9A A57U | 0.19
150 | U9A A129U | 1.43
151 | G8U C37G | 1.18
152 | G8U C37U | 1.51
153 | U9A A124U | 1.2
154 | U9A U23A | 0.36
155 | U9A A78U | 1.65
156 | U9A A78G | 1.13
157 | G11A A59G | 0.08
158 | U9A U132C | 1.04
159 | G11A U119A | 0.93
160 | U12A A121G | 1.43
161 | U9G U130A | 0.78
162 | U9G U130C | 1.79
163 | U9G U52G | 1.05
164 | U9A G80A | 1.92
165 | U9A C51A | 1.47
166 | G10A U14C | 1.45
167 | U9C G82U | 1.34
